The results in this text go back to US20250084177A1 (HUAHUI HEALTH, published 2025).

Residue numbers refer to the chain shown, from its start. Numbers in names are those of the source.

The target in test [1] is T1, mouse CD98 (mCD98) ECD (mouse, UniProt P10852 100-526).
T1 construct: extracellular domain; By the methods the CD98 ECDs were His6-Avi-tagged; also called murine CD98
T1 sequence (looked up): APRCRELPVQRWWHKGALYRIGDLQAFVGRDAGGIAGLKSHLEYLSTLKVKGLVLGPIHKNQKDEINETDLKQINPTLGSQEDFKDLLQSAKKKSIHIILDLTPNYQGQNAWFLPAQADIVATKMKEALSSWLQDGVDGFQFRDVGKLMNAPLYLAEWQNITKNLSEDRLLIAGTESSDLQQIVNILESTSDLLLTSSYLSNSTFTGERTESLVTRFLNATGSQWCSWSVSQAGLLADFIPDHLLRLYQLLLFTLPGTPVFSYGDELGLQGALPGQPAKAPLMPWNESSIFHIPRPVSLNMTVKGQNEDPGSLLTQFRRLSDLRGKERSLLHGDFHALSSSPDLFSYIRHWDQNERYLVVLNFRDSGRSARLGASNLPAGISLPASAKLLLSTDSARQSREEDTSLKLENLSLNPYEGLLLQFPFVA
Briefly: SPR (Biacore T200), antibody captured, mouse CD98 ECD as analyte, 1:1 Langmuir model. A general note: In SPR one partner is held on a chip, and binding of the other changes the refractive index at the surface.
Procedure: (§1) Kinetic analysis of the bindings of anti-CD98 antibodies to the ECD of CD98, and the ECD of FcγRs were performed on a Biacore T200 instrument (Biacore, GE Healthcare). Anti-hFc Ab or protein A/G (Thermo Fisher Scientific) was covalently attached to the surface of a CM5 sensor chip using an amine coupling kit (GE Healthcare). Antibodies at optimal concentrations were captured on the chip and the analytes (CD98 or FcγRs) were then injected at 2-fold serial diluted concentrations. Binding kinetics were evaluated using a 1:1 Langmuir binding model. The ka, kd, and KD values were calculated using Biacore T200 evaluation software.

Test [2] deals with T2, human CD98 (hCD98) on cells (human, UniProt P08195 2-529).
T2 construct: also called CHO-hCD98; hCD98-expressing CHO cells
T2 sequence: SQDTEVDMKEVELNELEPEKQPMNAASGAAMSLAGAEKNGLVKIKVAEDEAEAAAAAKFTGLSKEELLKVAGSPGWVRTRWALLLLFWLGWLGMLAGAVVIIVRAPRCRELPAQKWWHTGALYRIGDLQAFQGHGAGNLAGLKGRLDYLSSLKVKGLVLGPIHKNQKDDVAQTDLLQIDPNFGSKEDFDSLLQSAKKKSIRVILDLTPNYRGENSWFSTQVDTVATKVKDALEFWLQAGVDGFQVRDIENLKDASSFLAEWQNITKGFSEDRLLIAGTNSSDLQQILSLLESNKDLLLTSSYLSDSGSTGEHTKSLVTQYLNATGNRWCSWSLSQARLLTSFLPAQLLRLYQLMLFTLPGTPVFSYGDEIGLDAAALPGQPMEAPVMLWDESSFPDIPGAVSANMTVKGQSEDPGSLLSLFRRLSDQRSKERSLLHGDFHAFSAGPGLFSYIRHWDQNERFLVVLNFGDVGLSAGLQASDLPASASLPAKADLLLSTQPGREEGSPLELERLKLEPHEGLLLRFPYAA
Nature of the test: immunofluorescence on kidney sections of CD98 humanized mice (hCD98 ECD knock-in), FITC anti-human IgG secondary.

Test [3] has as its target T3, hCD98 ECD-His6-Avi (human, UniProt P08195 105-529, biotinylated by BirA ligase on the Avi tag (form used in ELISA)).
T3 construct: also called hCD98 ECD-His6-Avi-Biotin; not shown: His6-Avi tag
T3 sequence: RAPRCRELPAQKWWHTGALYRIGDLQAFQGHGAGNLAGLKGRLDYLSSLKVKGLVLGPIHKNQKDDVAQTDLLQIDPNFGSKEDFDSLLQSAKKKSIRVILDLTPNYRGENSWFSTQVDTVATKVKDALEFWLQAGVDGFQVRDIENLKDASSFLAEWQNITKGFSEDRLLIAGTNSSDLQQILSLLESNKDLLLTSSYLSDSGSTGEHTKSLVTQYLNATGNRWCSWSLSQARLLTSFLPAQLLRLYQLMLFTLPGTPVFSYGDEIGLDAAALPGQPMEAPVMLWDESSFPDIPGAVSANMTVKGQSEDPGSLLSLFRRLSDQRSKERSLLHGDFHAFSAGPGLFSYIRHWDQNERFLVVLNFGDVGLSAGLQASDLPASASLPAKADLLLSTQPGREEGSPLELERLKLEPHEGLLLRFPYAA
Nature of the test: SPR (Biacore T200), antibody captured, hCD98 ECD as analyte.

Test [4] deals with T3, hCD98 ECD-His6-Avi. Briefly: SPR (Biacore T200), antibody captured, hCD98 ECD as analyte, 1:1 Langmuir model.
Procedure: as §1
Test [5] has as its target T3, hCD98 ECD-His6-Avi. Briefly: ELISA at pH 7.4 and pH 6.5 on hCD98 ECD-His6-Avi-Biotin.
Test [6] has as its target T3, hCD98 ECD-His6-Avi. Briefly: ELISA at pH 6.5 on hCD98 ECD-His6-Avi-Biotin. In general terms: In an ELISA, binding on a coated surface is turned into a signal by an enzyme label.
The target in test [7] is T3, hCD98 ECD-His6-Avi. Briefly: ELISA at pH 7.4 on hCD98 ECD-His6-Avi-Biotin.
The target of test [8] is T3, hCD98 ECD-His6-Avi. Nature of the test: ELISA at pH 7.4, biotinylated hCD98 ECD captured on streptavidin, HRP anti-human IgG Fc.
Procedure: (§2) For the ELISA-based analysis of antibody binding with antigen, biotinylated protein antigens were captured with streptavidin (Sigma-Aldrich) coated 96-well plates (Nunc, MaxiSorp™). Then, serially diluted antibodies were added, and detected by adding an HRP-labeled goat polyclonal anti-Human IgG Fc (Thermo Fisher Scientific).
Test [9] has as its target T3, hCD98 ECD-His6-Avi. Nature of the test: ELISA at pH 6.5, ratio of EC50 values against S1-F4 Y97E.
For test [10], the target named is T3, hCD98 ECD-His6-Avi. Nature of the test: ELISA at pH 6.5, biotinylated hCD98 ECD captured on streptavidin.
Procedure: as §2
For test [11], the target named is T3, hCD98 ECD-His6-Avi. Briefly: ELISA, EC50 ratio pH 7.4/6.5 against that of S1-F4 Y97E.
Procedure: as §2
Test [12] concerns the target T3, hCD98 ECD-His6-Avi. Nature of the test: ELISA at pH 7.4 and pH 6.5 on hCD98 ECD.
Test [13] concerns the target T1, mouse CD98 (mCD98) ECD. Nature of the test: SPR (Biacore T200), antibody captured, CD98 ECD as analyte; table cells 'n.m.'.
Procedure: as §1
In test [14] the target is T4, HEK293T-mCD98 (Mus musculus, UniProt P10852).
T4 construct: full length, on cells or tissue; Cell-surface counterpart of m7 (the soluble mCD98 ECD), as m5 is of m4; also called mouse CD98 (mCD98) on cells; CD98 of C57BL/6 kidney and leukocytes
T4 sequence (CD98 heavy chain, looked up): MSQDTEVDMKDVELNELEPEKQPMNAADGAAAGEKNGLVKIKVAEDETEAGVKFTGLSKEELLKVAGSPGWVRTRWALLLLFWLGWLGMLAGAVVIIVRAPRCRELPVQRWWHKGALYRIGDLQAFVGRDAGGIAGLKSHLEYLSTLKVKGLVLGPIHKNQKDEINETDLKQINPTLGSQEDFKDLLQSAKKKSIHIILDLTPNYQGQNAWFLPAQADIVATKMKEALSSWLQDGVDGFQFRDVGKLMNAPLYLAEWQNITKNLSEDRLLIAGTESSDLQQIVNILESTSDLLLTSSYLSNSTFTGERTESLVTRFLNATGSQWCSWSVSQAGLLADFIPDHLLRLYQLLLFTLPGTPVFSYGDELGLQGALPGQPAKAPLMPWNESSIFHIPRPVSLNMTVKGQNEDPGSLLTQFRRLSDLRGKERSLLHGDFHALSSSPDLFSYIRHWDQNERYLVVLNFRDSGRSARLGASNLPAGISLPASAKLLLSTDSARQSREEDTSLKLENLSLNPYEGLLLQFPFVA
Briefly: FACS on leukocytes of C57BL/6 mice, FITC anti-human IgG secondary.

Test [15] deals with T3, hCD98 ECD-His6-Avi. Briefly: SPR (Biacore T200), antibody captured, CD98 ECD as analyte, 1:1 Langmuir model.
Procedure: as §1
The target in test [16] is T3, hCD98 ECD-His6-Avi. Nature of the test: ELISA at pH 6.5, biotinylated hCD98 ECD captured on streptavidin; pH 6.5.
Procedure: as §2
The target in test [17] is T3, hCD98 ECD-His6-Avi. Nature of the test: ELISA at pH 7.4, biotinylated hCD98 ECD captured on streptavidin; pH 7.4.
Procedure: as §2

B1: BC8 (antibody, V domains shown)
VH: EVQLVESGGGVVQPGRSLRLSCAASGFTVSNNYMSWVRQAPGKGLEWVSVIYSGGKTYYADSAKGRFTISRDNSKNTVFLQMNSLRVEDTAVYYCARVSGLGWFDPWGQGTLVTVSS
VL: not shown
notes: human IgG1 format by the methods (detected with anti-human IgG); also called anti-mouse CD98 antibody BC8; mCD98-specific Ab
As usually defined, the Kd is the equilibrium constant for the complex coming apart. The koff is the rate constant with which the complex falls apart. A high value points to fast dissociation. A word on the kon: it is a measure of how fast the partners come together. In [1], B1 had a Kd of 86.1 nM, a koff of 0.00344 s⁻¹ and a kon of 40000 M⁻¹ s⁻¹. Moreover, in test [2], the binding result was “no binding (tested: 15 µg/ml)”.

B2: HN2-G9 (antibody, V domains shown)
VH: QVQLVQSGAEVKKPGSSVKVSCKASGYTFTSYYMHWVRQAPGQGLEWMGIINPSGGSTSYAQKFQGRVTMTRDTSTSTVYMELSSLRSEDTAVYFCARGYCSGGRCYSDFQHWGQGTLVTVSS
VL: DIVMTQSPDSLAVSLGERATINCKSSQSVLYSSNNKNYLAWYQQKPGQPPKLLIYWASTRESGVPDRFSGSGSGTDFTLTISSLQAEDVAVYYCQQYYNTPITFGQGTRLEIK
The molecule B2 had an equilibrium dissociation constant (Kd) in test [3] of 1290 nM. Moreover, in test [4], the dissociation rate constant (koff) amounted to 0.102 s⁻¹ and the on-rate constant (kon) stood at 787000 M⁻¹ s⁻¹.

B3: IGN523 (antibody, V domains shown)
VH: QVQLVQSGAEVKKPGSSVKVSCKASGNAFTNYLIEWVRQAPGQGLEWMGVINPGSGITNYNEKFKGKATITADKSTSTAYMELSSLRSEDTAVYYCSGSANWFAYWGQGTLVTVSS
VL: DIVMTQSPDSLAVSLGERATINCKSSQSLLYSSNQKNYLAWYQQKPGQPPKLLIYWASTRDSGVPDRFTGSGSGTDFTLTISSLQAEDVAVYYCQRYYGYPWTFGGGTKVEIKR
In test [4], B3 had a dissociation constant (Kd) of 0.722 nM, an off-rate (koff) of 0.000145 s⁻¹ and a kon of 201000 M⁻¹ s⁻¹.

B4: Ab8332 (antibody, V domains shown)
VH: QVQLVQSGAEVKKPGASVKVSCKASGYTFTSYQMHWVRQAPGQGLEWMGIINPSGGSTSYAQKFQGRVTMTRDTSTSTVYMELSSLRSEDTAVYYCARGYEDSNTHQHPIFFDIWGQGTMVTVSS
VL: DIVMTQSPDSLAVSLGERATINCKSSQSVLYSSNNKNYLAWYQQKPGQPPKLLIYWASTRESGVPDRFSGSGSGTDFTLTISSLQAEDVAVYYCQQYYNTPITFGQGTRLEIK
notes: human IgG1 format by the methods
Usually EC50 (read off the curve) stands for the concentration needed to bring the measured effect to its halfway point. Regarding B4, the “EC50 ratio (pH 7.4/6.5)” value in test [5] is 50.7. Moreover, the concentration for a half-maximal effect (EC50 (read off the curve)) in test [6] was around 0.1 nM; in [7] it was around 5 nM.

B5: H15L1 (antibody, human IgG1, V domains shown)
VH: B4 VH with P53D, S54K, G55H
VL: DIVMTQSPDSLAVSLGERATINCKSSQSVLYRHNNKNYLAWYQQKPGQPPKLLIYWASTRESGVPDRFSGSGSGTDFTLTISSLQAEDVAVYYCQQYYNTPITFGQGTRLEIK
notes: as for B4
For B5, the “EC50 ratio (pH 7.4/6.5)” value in [5] amounted to 11.8.

B6: H15L54 (antibody, human IgG1, V domains shown)
VH: B4 VH with P53D, S54K, G55H
VL: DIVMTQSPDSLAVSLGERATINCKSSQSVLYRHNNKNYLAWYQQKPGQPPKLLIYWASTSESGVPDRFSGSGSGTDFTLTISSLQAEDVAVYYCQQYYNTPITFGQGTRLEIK
notes: human IgG1 format by the methods; also called pH-dependent anti-hCD98 antibody H15L54
Broadly, the EC50 is the midpoint of the concentration-response curve. A lower EC50 goes with an effect from little substance. With B6, the “EC50 (read off the curve)” value in test [8] is around 5 nM. For the same molecule, the “fold higher binding activity at pH 6.5 than S1-F4 Y97E” value in test [9] was around 7 fold. The EC50 in test [10] stood at 0.247 nM. In addition, in [11], the “fold higher binding pH-dependence than S1-F4 Y97E” value is around 14 fold. Moreover, in test [12], the “EC50 ratio (pH 7.4/6.5)” value is 38.

B7: S1-F4 (antibody, V domains shown)
VH: B4 VH with Q33Y, E101Y, S103I, N104L, H106G, Q107S, H108R
VL: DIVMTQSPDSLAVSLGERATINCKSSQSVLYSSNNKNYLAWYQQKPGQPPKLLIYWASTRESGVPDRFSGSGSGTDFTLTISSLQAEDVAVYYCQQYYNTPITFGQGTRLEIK
notes: Obtained by VH chain shuffling of HN2-G9; also called anti-hCD98 antibody S1-F4
Regarding B7, the binding result in test [13] is on record as “no binding”. The binding result in test [14] is “no binding (tested: 10 µg/ml)”. Also, in [15], binding was put at a Kd of 58.2 nM, the off-rate constant (koff) amounted to 0.0576 s⁻¹ and the association rate constant (kon) is 990000 M⁻¹ s⁻¹. The same molecule had an EC50 in test [16] of 0.059 nM. Further, the midpoint of the response in test [17], the EC50, lay at 0.046 nM.

B8: H15L35 (antibody, human IgG1, V domains shown)
VH: B4 VH with P53D, S54K, G55H
VL: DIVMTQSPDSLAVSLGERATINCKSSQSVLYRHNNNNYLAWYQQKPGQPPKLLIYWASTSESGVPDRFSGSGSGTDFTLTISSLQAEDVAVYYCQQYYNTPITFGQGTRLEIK
notes: as for B4
For B8, in test [5], the “EC50 ratio (pH 7.4/6.5)” value came to 16.

B9: S1-F4 Y97E (antibody, V domains shown)
VH: B4 VH with Q33Y, S103I, N104L, H106G, Q107S, H108R
VL: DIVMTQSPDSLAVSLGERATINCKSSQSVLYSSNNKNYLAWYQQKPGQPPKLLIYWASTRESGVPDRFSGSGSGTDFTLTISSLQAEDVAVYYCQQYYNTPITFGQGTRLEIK
notes: S1-F4 with Y97E in HCDR3; also called S1-F4 VH Y97E
Regarding B9, the “EC50 ratio (pH 7.4/6.5)” value in [12] amounted to 2.7. Besides, the EC50 was determined as 1.69 nM in test [16] and 4.53 nM in test [17].
